B1: GLP-1(7-35; A8S)-SGGGGSGGG-FGF21(33-194; R154C-40 kDa branched PEG) (ligand)
chain: HSEGTFTSDVSSYLEGQAAKEFIAWLVKGGSGGGGSGGGDSSPLLQFGGQVRQRYLYTDDAQQTEAHLEIREDGTVGGAADQSPESLLQLKALKPGVIQILGVKTSRFLCQRPDGALYGSLHFDPEACSFRELLLEDGYNVYQSEAHGLPLHLPGNKSPHCDPAPRGPARFLPLPGLPPALPEPPGILAPQPPDVGSSDPLS
modifications: 40 kDa branched PEG on Cys at R154C (FGF21 numbering)
B2: GLP-1(7-35; A8S)-GSGGGGSGGG-FGF21(33-209; Q56E-D74H-Q82E-R105K-K150R-R154C-40 kDa branched PEG-R159Q-S195A) (ligand)
chain: HSEGTFTSDVSSYLEGQAAKEFIAWLVKGGSGGGGSGGGDSSPLLQFGGQVRQRYLYTDDAQETEAHLEIREDGTVGGAAHQSPESLLELKALKPGVIQILGVKTSRFLCQKPDGALYGSLHFDPEACSFRELLLEDGYNVYQSEAHGLPLHLPGNRSPHCDPAPQGPARFLPLPGLPPALPEPPGILAPQPPDVGSSDPLAMVGPSQGRSPSYAS
modifications: 40 kDa branched PEG on Cys at R154C (FGF21 numbering)

Legend:
[1] = target: GLP-1 receptor (UniProt P43220 24-463, limits assumed); assay: cell-based or functional assay
[2] = target: FGF21 receptor; assay: cell-based or functional assay

Binder | cAMP EC50 (fold-Ex-4); GLP-1R only cells [1] [fold] | cAMP EC50 (fold-Ex-4); GLP-1R only cells; V253 + V76 co-treatment [1] [fold] | cAMP EC50 (fold-Ex-4); GLP-1R/FGFR1c/beta-klotho cells [1] [fold] | cAMP EC50 (fold-Ex-4); GLP-1R/FGFR1c/beta-klotho cells; V253 + V76 co-treatment [1] [fold] | cAMP EC50 (nM); GLP-1R only cells [1] [nM] | cAMP EC50 (nM); GLP-1R only cells; V253 + V76 co-treatment [1] [nM] | cAMP EC50 (nM); GLP-1R/FGFR1c/beta-klotho cells [1] [nM] | cAMP EC50 (nM); GLP-1R/FGFR1c/beta-klotho cells; V253 + V76 co-treatment [1] [nM] | potency in the FGF21 receptor assay [2] [fold less potent]
B1 | 3.2 | 3.5 | 4.1 | 2.1 | 34 | 38 | 24 | 12 | ≥ 1000
B2 | 6 | – | 0.4 | – | 64 | – | 2.4 | – | –

Source: patent publication US20170166621A1 (Novartis, published 2017)
